In patent US5702897 one finds colony formation of yeast cotransformed with LexA/Bax, galactose medium (neutralization of Bax activity) data, which are given here for seven substances.

The target of the assay is LexA/Bax fusion protein (murine) (UniProt P0A7C2).
In the case of B42/Bcl-2(1-81) hybrid, the colony formation of yeast cotransformed with LexA/Bax, galactose medium (neutralization of Bax activity) was 19. In the case of B42/Bcl-2(1-218) hybrid it was 280; in that of B42/Bcl-2(83-218) hybrid, 16. The substance B42/Bcl-X-L hybrid came in with a colony formation of yeast cotransformed with LexA/Bax, galactose medium (neutralization of Bax activity) of 300.

In the case of B42/Bcl-X-S hybrid, the colony formation of yeast cotransformed with LexA/Bax, galactose medium (neutralization of Bax activity) was determined as 10.

Turning to B42/Lamin, the colony formation of yeast cotransformed with LexA/Bax, galactose medium (neutralization of Bax activity) amounted to 8. On to B42/Mcl-1 hybrid, for which the colony formation of yeast cotransformed with LexA/Bax, galactose medium (neutralization of Bax activity) amounted to 290.
